We go through 1 substance from article PMC11203576.

The test deals with SARS-CoV-2 spike protein RBD, original (wild-type), sfGFP fusion (SARS-CoV-2) (UniProt P0DTC2). The experiment in a line: SPR; Biacore T200; […] (0.01 M HEPES, 0.15 M NaCl, 3 mM EDTA, 0.05% surfactant P20, […]. On the technique in general: Surface plasmon resonance follows binding to a sensor surface in real time, without labels.

By Kd is commonly meant the concentration at which binding is half-saturated. Read a low Kd as higher affinity. Jacalin (natural protein) displayed a dissociation constant Kd of 428 nM.
